Test [1] deals with T1, human MSLN-R3 protein (human, UniProt Q13421 487-598).
T1 construct: also called hMSLN-R3
The test can be described thus: ELISA on coated antigen, antibody 1 nM. (In general: An ELISA detects its analyte on a solid surface through an enzyme-linked reagent.)

For test [2], the target named is T1, human MSLN-R3 protein. The test can be described thus: ELISA on coated antigen, antibody 1 nM. The source holds these as a separate data set.
Test [3] addresses T1, human MSLN-R3 protein. The test can be described thus: ELISA on coated antigen, antibody 10 nM.
Test [4] concerns the target T1, human MSLN-R3 protein. The test can be described thus: ELISA on coated antigen, antibody 10 nM. The source holds these as a separate data set.
In test [5] the target is T1, human MSLN-R3 protein. Kind of test: ELISA on coated antigen, antibody 0.1 nM.
The target in test [6] is T1, human MSLN-R3 protein. Kind of test: ELISA on coated antigen, antibody 100 nM.
In test [7] the target is T1, human MSLN-R3 protein. The test can be described thus: ELISA on coated antigen, antibody 0.1 nM. This is another data set of the same source.
Test [8] has as its target T1, human MSLN-R3 protein. The test can be described thus: ELISA on coated antigen, antibody 100 nM. The source holds these as a separate data set.
For test [9], the target named is T1, human MSLN-R3 protein. The test can be described thus: ELISA on coated antigen, antibody 0.01 nM.
For test [10], the target named is T1, human MSLN-R3 protein. Kind of test: ELISA on coated antigen, antibody 0.01 nM. The source holds these as a separate data set.
Test [11] concerns the target T1, human MSLN-R3 protein. The test can be described thus: ELISA on coated antigen, antibody 0.001 nM.
The target of test [12] is T1, human MSLN-R3 protein. The test can be described thus: ELISA on coated antigen, antibody 0.001 nM. This is another data set of the same source.
Test [13] concerns the target T1, human MSLN-R3 protein. The test can be described thus: ELISA on coated antigen, antibody 0.0001 nM.
For test [14], the target named is T1, human MSLN-R3 protein. The test can be described thus: ELISA on coated antigen, antibody 0.0001 nM. The source holds these as a separate data set.
The target in test [15] is T2, human MSLN-hFc protein (Acro, Cat. No. MSN-H5253) (human, UniProt Q13421 296-580).
T2 construct: the method names the coated protein as human MSLN-hFc (Acro); also called human MSLN full-length protein
T2 sequence (Q13421 other isoform, or with tags, fused parts or gaps limits assumed): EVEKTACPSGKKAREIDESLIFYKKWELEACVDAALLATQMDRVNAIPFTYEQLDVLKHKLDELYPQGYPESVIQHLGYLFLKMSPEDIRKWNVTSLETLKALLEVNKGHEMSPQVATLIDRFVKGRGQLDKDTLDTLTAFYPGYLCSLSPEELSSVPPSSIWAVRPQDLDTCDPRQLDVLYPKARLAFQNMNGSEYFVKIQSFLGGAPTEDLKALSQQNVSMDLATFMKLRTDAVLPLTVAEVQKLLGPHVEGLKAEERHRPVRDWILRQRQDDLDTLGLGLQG
The test can be described thus: ELISA on coated antigen, antibody 1 nM.

For test [16], the target named is T2, human MSLN-hFc protein (Acro, Cat. No. …). The test can be described thus: ELISA on coated antigen, antibody 10 nM.
The target is the same in test [17]. Kind of test: ELISA on coated antigen, antibody 0.1 nM.
For test [18] the target is unchanged. Kind of test: ELISA on coated antigen, antibody 100 nM.
Test [19] has the same target. Kind of test: ELISA on coated antigen, antibody 0.01 nM.
For test [20] the target is unchanged. Kind of test: ELISA on coated antigen, antibody 0.001 nM.
The target is the same in test [21]. The test can be described thus: ELISA on coated antigen, antibody 0.0001 nM.
For test [22], the target named is T3, human MSLN protein endogenously expressed on OVCAR3 tumor cells (human, UniProt Q13421 296-598).
T3 construct: whole, on cells; Endogenous target on OVCAR3 cells; kept apart from the recombinant full-length construct; also called mesothelin
T3 sequence (Q13421 other isoform, or with tags, fused parts or gaps): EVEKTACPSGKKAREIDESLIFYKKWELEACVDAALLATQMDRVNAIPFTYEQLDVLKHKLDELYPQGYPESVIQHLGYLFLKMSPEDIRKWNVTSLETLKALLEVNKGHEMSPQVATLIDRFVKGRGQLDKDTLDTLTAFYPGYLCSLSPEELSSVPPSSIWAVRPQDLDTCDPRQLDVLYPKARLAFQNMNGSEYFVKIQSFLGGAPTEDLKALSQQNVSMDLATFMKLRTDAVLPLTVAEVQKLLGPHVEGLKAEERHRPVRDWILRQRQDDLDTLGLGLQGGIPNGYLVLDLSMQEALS
Kind of test: FACS on OVCAR3 cells.

Test [23] has as its target T4, human MSLN full-length protein (NCBI: AAH09272.1) expressed on HEK293T-hMSLN-B8 cells (human, UniProt Q13421 296-598).
T4 construct: Whole encoded precursor
Kind of test: FACS on HEK293T-hMSLN-B8 cells.

Test [24] concerns the target T5, human MSLN-R3 protein (Met487-Ser606 of NCBI AAH09272.1) expressed on HEK293T-hMSLN-R3 cells (human, UniProt Q13421 487-606).
T5 construct: also called Region3
The test can be described thus: FACS on HEK293T-hMSLN-R3 cells.

In test [25] the target is T6, monkey MSLN full-length protein (NCBI: XP_028696439.1) expressed on HEK293T-monkey MSLN cells (monkey).
T6 construct: Whole encoded precursor
T6 chain: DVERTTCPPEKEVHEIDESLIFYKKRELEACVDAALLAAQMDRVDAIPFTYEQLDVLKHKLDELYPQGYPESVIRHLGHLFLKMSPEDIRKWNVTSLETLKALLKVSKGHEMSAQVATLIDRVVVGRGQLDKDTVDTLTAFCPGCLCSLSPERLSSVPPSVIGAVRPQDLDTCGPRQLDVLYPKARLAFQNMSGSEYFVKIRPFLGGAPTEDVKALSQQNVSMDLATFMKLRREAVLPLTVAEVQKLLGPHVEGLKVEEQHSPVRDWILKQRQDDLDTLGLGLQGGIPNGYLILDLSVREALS
Kind of test: FACS on HEK293T-monkey MSLN cells.

Six molecules from patent US20250250357A1 (NANJING ZAIMING PHARMACEUTICAL, published 2025) can be followed below.

T1 sequence (Q13421 495-606, form in doubt): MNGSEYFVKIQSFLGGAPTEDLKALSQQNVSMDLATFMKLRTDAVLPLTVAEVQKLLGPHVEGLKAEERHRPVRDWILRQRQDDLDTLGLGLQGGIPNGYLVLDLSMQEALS
T5 sequence (Q13421 495-614): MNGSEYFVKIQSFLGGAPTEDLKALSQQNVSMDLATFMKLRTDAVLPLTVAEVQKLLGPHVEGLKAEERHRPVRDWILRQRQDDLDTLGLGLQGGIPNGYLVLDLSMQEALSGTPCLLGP
T4 sequence (Q13421 other isoform, or with tags, fused parts or gaps limits assumed): as the sequence (Q13421 other isoform, or with tags, fused parts or gaps) above, with R14P counted along it

B1: Tab111 (scFv, not shown: small tags and cut ends)
scFv: DVVMTQTPASVSEPVGGTVTIKCQASQRISSYLSWYQQKPGQRPKLLIFGASTLASGVPSRFKGSGSGTEYTLTISDLECADAATYYCQSYAYFDSNNWHAFGGGTEVVVGGGGSGGGGSGGGGSQQQLEESGGGLVKPEGSLTLTCKASGFDLGFYFYACWVRQAPGKGLEWIACIYTAGSGSTYYASWAKGRFTISKASSTTVTLQMTSLAAADTATYFCARSTANTRSTYYLNLWGPGTLVTVSS
notes: also called YP218 VL-(G4S)3-VH-his antibody; positive control
In the case of B1, the OD450 is 0.51 OD450 with human MSLN-R3 protein [1]; 0.51 OD450 with human MSLN-R3 protein [2]; 1.88 OD450 with human MSLN-R3 protein [3]; 1.88 OD450 with human MSLN-R3 protein [4]; 0.09 OD450 in the test with human MSLN-R3 protein [5]; 2.1 OD450 in the test with human MSLN-R3 protein [6]. For the same molecule, the OD450 with human MSLN-R3 protein [7] worked out at 0.09 OD450; in the test with human MSLN-R3 protein [8] it was 2.1 OD450; with human MSLN-R3 protein [9] it was 0.05 OD450; with human MSLN-R3 protein [10], 0.05 OD450; with human MSLN-R3 protein [11], 0.05 OD450; with human MSLN-R3 protein [12] it was 0.05 OD450. Also, the OD450 with human MSLN-R3 protein [13] and with human MSLN-R3 protein [14] was 0.05 OD450 in each case.

B2: F7.33.24-H1 (scFv, not shown: small tags and cut ends)
scFv: EVQLVQSGAEVKKPGASVKVSCKASGYTFTSYWMHWVRQAPGQRLEWMGNVNPSNGGSNYNEKFKNRVTITVDKSASTAYMELSSLRSEDTAVYYCAPHYIGSRPGFAYWGQGTLVTVSSGGGGSGGGGSGGGGSDIVMTQSPDSLAVSLGERATINCKASQNVGTNIAWYQQKPGQSPKALIYSASYRYSGVPDRFSGSGSGTDFTLTISSLQAEDVAVYYCQQYNSYPLTFGGGTKVEIK
notes: also called S009-F7.33.24 humanized antibody VH1 + VL1
As for B2, the OD450 in test [15] was found to be 0.59 OD450; in the test with human MSLN-R3 protein [2], 0.52 OD450; in [16] it was 2.53 OD450; with human MSLN-R3 protein [4], 1.61 OD450; in [17] it was 0.1 OD450; in [18], 2.9 OD450. The OD450 was 0.08 OD450 with human MSLN-R3 protein [7]; 1.93 OD450 in the test with human MSLN-R3 protein [8]; 0.05 OD450 in test [19]; 0.04 OD450 with human MSLN-R3 protein [10]; 0.04 OD450 in test [20]; 0.04 OD450 in the test with human MSLN-R3 protein [12]. The OD450 came to 0.05 OD450 in test [21] and 0.04 OD450 with human MSLN-R3 protein [14].

B3: F7.33.24-H4 (scFv, not shown: small tags and cut ends)
scFv: EVQLVQSGAEVKKPGASVKVSCKASGYTFTSYWMHWVRQAPGQRLEWMGNVNPSSGGSNYNEKFKNRVTITVDKSASTAYMELSSLRSEDTAVYYCAPHYIGSRPGFAYWGQGTLVTVSSGGGGSGGGGSGGGGSDIVMTQSPDSLAVSLGERATINCKASQNVGTNIAWYQQKPGQSPKALIYSASYRYSGVPDRFSGSGSGTDFTLTISSLQAEDVAVYYCQQYNSYPLTFGGGTKVEIK
notes: also called S009-F7.33.24 humanized antibody VH1a + VL1
As for B3, the OD450 in test [15] was found to be 0.45 OD450; with human MSLN-R3 protein [2] it was 0.45 OD450; in [16], 2.21 OD450; with human MSLN-R3 protein [4] it was 1.64 OD450; in [17], 0.08 OD450; in test [18], 2.95 OD450. For the same molecule, the OD450 in the test with human MSLN-R3 protein [7] is 0.07 OD450; with human MSLN-R3 protein [8], 1.95 OD450; in [19] it was 0.07 OD450; in the test with human MSLN-R3 protein [10] it was 0.04 OD450; in test [20] it was 0.05 OD450; in the test with human MSLN-R3 protein [12], 0.04 OD450. Besides, the OD450 in [21] turned out to be 0.05 OD450; with human MSLN-R3 protein [14], 0.04 OD450.

B4: S009-F2-56.12 (antibody, human IgG1, kappa, V domains shown)
VH: DVQLQESGPGMVKPSQSLSLTCTVTGYSITSGYDWHWIRHFPGNKLEWMGYISYSGSTNYNPSLKSRISITHDTSKNHFFLKLKSVTTEDTATYYCARGTGPDYWGQGTTLTVSS
VL: DIVMTQSQKFMSTSVGDRVSITCKASQNVRTAVAWYQQKPGQSPKALIHLPSNRHTGVPDRFTGSGSGTDFTLTISNVQSEDLADYFCLQHWNYPLTFGGGTKLEIKR
notes: human-murine chimeric antibody, human IgG1/kappa constant regions
Take B4: the EC50 (in general, the concentration that produces a half-maximal response) was 0.54 nM in [22] and ~0.79 nM in test [23]. The “Maximum mean fluorescence intensity” value in [22] is 6140; in test [23] it was 67000; in test [24], 94; in test [25], 95. For the same molecule, the binding result in [24] and in [25] was “no binding” throughout.

B5: Tab110 (scFv, not shown: small tags and cut ends)
scFv: QQQLEESGGGLVKPEGSLTLTCKASGFDLGFYFYACWVRQAPGKGLEWIACIYTAGSGSTYYASWAKGRFTISKASSTTVTLQMTSLAAADTATYFCARSTANTRSTYYLNLWGPGTLVTVSSGGGGSGGGGSGGGGSDVVMTQTPASVSEPVGGTVTIKCQASQRISSYLSWYQQKPGQRPKLLIFGASTLASGVPSRFKGSGSGTEYTLTISDLECADAATYYCQSYAYFDSNNWHAFGGGTEVVV
notes: also called YP218 VH-(G4S)3-VL-his antibody; positive control
For B5, the OD450 in the test with human MSLN-R3 protein [1] was 0.06 OD450; with human MSLN-R3 protein [2], 0.06 OD450; with human MSLN-R3 protein [3], 0.78 OD450; in the test with human MSLN-R3 protein [4] it was 0.78 OD450; in the test with human MSLN-R3 protein [5], 0.04 OD450; with human MSLN-R3 protein [6] it was 0.98 OD450. The OD450 with human MSLN-R3 protein [7] came out at 0.04 OD450; with human MSLN-R3 protein [8], 0.98 OD450; with human MSLN-R3 protein [9] it was 0.04 OD450; with human MSLN-R3 protein [10], 0.04 OD450; in the test with human MSLN-R3 protein [11], 0.04 OD450; with human MSLN-R3 protein [12] it was 0.04 OD450. The OD450 in the test with human MSLN-R3 protein [13] and in the test with human MSLN-R3 protein [14] was 0.05 OD450 throughout.

B6: S009-F2.39.3 (antibody, human IgG1, kappa, V domains shown)
VH: QVQLQQPGTELVKPGASVKLSCKASGYTFTNYWMHWVKQRPGQGLEWIGNINPSSGDSYYNERFMSKAKMTVDKSSSTAYMQLSSLTSEDSAVYYCARSGGLWLAFWGPGTLVTVSA
VL: DIVMTQSPSSLAMSVGQKVTMSCKSSQTLLNSVSQNNYLAWYQQKPGQSPTLLVYFASTRESGVPDRFIGGGSGTDFTLTISSVQAEDLADYFCQQHYRTPYTFGGGTNLEIKR
notes: as for B4
For the molecule B6, the concentration giving a half-maximal response (EC50) in [22] is 5.52 nM; in test [23], 5.79 nM; in test [24] it was 4.19 nM; in test [25] it was 4.18 nM. The “Maximum mean fluorescence intensity” value in [22] worked out at 14600; in test [23], 138000; in test [24] it was 3290; in [25] it was 20800.
